Consider two molecules from patent publication US20240392013A1 (STELEXIS THERAPEUTICS, published 2024).

In assay [1] the target is T1, recombinant human IL1RAP protein, extracellular domain His-tagged (Sino Biological, Cat #10121-H08H) (human, UniProt Q9NPH3 21-367).
T1 construct: extracellular domain; Bought protein; The Octet analyte is printed as huIL1RAP-His (Sino Biological, lot MB08MA1301) without a catalogue number; also called huIL1RAP-His; hIL1RAP; not shown: His tag
T1 sequence (looked up): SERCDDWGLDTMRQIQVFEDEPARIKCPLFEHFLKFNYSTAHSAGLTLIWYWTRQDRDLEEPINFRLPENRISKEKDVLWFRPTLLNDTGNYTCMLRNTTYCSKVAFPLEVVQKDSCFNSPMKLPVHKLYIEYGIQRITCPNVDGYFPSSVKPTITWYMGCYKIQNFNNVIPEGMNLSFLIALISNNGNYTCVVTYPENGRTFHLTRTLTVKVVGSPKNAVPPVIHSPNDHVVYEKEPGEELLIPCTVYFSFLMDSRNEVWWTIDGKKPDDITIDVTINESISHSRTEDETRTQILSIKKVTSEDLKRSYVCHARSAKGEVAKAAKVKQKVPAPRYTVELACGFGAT
Briefly: Octet BLI; mAb captured on anti-mouse IgG Fc sensor; huIL1RAP-His analyte. In short, it runs like this:
(§1)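 Antibodies at 5 μg/ml were captured on anti-mouse IgG Fc biosensors; His-tagged human or cynomolgus IL1RAP extracellular domain served as analyte at 100, 50 and 25 nM in PBS kinetics buffer (0.1% BSA, 0.02% Tween-20). Association 120 s, dissociation 1200 s; KD (M) calculated from binding kinetics.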
For orientation: Biolayer interferometry detects binding as a change in optical thickness at a sensor tip.

For assay [2], the target named is T2, cyIL1RAP-His (Lake Pharma) (cynomolgus monkey, UniProt A0A2K5X5J5 21-367).
T2 construct: Bought protein (Lake Pharma, lot 16205819371); also called cynomolgus IL1RAP; monkey IL1RAP; not shown: His tag
T2 sequence: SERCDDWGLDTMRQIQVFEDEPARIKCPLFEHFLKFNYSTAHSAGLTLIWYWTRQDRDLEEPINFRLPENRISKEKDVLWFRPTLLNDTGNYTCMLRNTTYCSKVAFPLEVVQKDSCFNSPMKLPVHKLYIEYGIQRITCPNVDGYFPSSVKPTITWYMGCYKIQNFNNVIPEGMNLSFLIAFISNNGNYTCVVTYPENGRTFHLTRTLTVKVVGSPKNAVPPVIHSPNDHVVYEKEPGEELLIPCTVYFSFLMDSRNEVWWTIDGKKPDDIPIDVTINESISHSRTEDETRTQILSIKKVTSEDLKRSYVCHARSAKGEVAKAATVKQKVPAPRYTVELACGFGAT
Briefly: Octet BLI; mAb captured on anti-mouse IgG Fc sensor; cyIL1RAP-His analyte. In outline: as §1

Assay [3] deals with T1, recombinant human IL1RAP protein, …. Briefly: cell-free ELISA, human IL1RAP coated at 1 µg/ml. The protocol: Recombinant human or mouse IL1RAP proteins (Sino Biological, Beijing, China; Cat #10121-H08H and Sino Biological, Cat #52657-M08H respectively) were diluted in PBS, pH 7.4 at concentration of 1 μg/ml, coated on high-binding 384-well clear plates and incubated overnight at 4° C. Following, plates were washed 3× with 0.05% Tween-20 in PBS, pH 7.5 and then blocked with 1% BSA in PBS for 1 hour at room temperature. After 3× washes, wells were incubated with each antibody at the highest concentration of 100 nM followed by seven serial half log dilutions (in 1% BSA and 0.05% Tween-20 in PBS) for 1 hour at room temperature. Plates were then washed 3× and incubated with […] detection antibody (Medna, TX, USA; Cat #D8212, 0.5 μg/ml diluted in 0.02% Tween-20 in PBS). After 5× washes, Supersignal ELISA Pico substrate (Thermofisher, MA, USA; Cat #37069) was applied to wells and chemiluminescent signal was read on Sprectramax L for 200 ms/well. Similarly, detection with specific κ and λ antibodies was conducted to define light chain isotyping.
Background: ELISA stands for enzyme-linked immunosorbent assay.

The target of assay [4] is T3, IL1RAP on HEK-Blue IL1β / HEK-Blue IL33 reporter cells (UniProt Q9NPH3 21-570, limits assumed).
T3 sequence (looked up): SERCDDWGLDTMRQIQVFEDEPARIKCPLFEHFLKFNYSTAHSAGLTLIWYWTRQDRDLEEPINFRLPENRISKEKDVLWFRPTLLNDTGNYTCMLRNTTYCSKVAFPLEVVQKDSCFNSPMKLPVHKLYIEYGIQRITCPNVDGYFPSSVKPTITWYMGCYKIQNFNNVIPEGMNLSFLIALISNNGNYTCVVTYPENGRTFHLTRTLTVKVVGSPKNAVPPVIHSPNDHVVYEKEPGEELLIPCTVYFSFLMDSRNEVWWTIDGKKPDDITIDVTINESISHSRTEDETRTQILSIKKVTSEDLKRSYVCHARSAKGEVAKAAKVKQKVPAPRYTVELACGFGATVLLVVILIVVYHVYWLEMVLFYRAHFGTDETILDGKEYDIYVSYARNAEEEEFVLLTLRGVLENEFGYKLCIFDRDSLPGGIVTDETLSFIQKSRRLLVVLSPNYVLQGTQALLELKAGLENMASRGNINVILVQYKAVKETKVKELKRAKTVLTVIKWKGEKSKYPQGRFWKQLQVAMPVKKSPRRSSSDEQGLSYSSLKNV
Briefly: cell-based or functional assay.

The target in assay [5] is T3, IL1RAP on HEK-Blue IL1β / HEK-Blue IL33 …. The assay can be described thus: cell-based or functional assay. The source holds these as a separate data set.

B1: STLX2012 (antibody, V domains shown)
VH: QVQLLQSGAEVKKPGSSVKVSCKASGGTFSIYAIDWVRQAPGQGLEWMGGIIPIFGTANSAQKFQGRVTITADKSTSTAYMELSSLRSEDTAVYYCARNGATSDAFDMWGQGTMVTVSS
VL: EIVLTQSPGTLSLSPGERATLSCRASLSVSSNYLAWFQQRPGQAPRLLIHGVSRRATGIPDRFSGSGSGTDFTLTISRLEPEDFAVYYCQQYGSSPLTFGGGTKVEIK
notes: Purified from hybridoma of immunized Alivamab mice; intact IgG; captured on anti-mouse IgG Fc sensors in Octet; kappa light chain; also called 74804_12A21B
Usually Kd stands for the free concentration of one partner at which half of the binding sites on the other are occupied at equilibrium, for simple one-to-one binding. Broadly, the koff is a measure of how fast the partners let go of each other. For orientation: kon means a measure of how fast the partners come together. The EC50 is the concentration giving half of the maximal effect. As for B1, in assay [1], the equilibrium dissociation constant (Kd) was determined as 0.934 nM, the Response worked out at 0.303, the off-rate constant (koff) came out at 0.000287 s⁻¹ and the on-rate (kon) came out at 308000 M⁻¹ s⁻¹. In addition, in assay [2], binding was characterised by a dissociation constant (Kd) of 1.29 nM, the Response was determined as 0.328, the koff came to 0.000441 s⁻¹ and the on-rate (kon) came out at 342000 M⁻¹ s⁻¹. For the same molecule, the EC50 in assay [3] came out at 0.985 nM. For the same molecule, the “Max % Inhibition at 200 nM, HEK-BlueIL33 NFκB Reporter Assay” value in assay [4] came out at 95%. Also, in assay [5], the “IC50, HEK-BlueIL1β NFκB Reporter Assay” value was 1.31e-09 M (implied; unit not printed) and the “Max % Inhibition at 200 nM, HEK-BlueIL1β NFκB Reporter Assay” value turned out to be 100%.

B2: STLX2043 (antibody, V domains shown)
VH: QVQLLQSGAEVKKPGSSVKVSCKASGGTFSIYAIDWVRQAPGQGLEWMGGIIPIFGTENSAQNFQGRITITADKSTNTAYMELSSLRSEDTAVYYCARNGATSDAFDIWGQGTMVTVFS
VL: EIVLTQSPGTLSLSPGERATLSCRASLSVSSNYLAWFQQRPGQAPRLLIYGVSRRATGIPDRFSGSGSGTDFTLTISRLEPEDFAVYYCQQYGSSPLTFGGGTKVEIK
notes: Purified from hybridoma of immunized Alivamab mice; intact IgG; captured on anti-mouse IgG Fc sensors in Octet; kappa light chain; also called 74804_43F04A
For the molecule B2, in assay [1], the Kd amounted to 0.425 nM, the Response was 0.251, the koff was determined as 0.000149 s⁻¹ and the on-rate constant (kon) worked out at 350000 M⁻¹ s⁻¹. In addition, in assay [2], the equilibrium dissociation constant (Kd) was 0.97 nM, the Response turned out to be 0.286, the koff is 0.0004 s⁻¹ and the kon came out at 412000 M⁻¹ s⁻¹. Also, in assay [3], the EC50 was 1.04 nM. In assay [4], the “IC50, HEK-BlueIL33 NFκB Reporter Assay” value is 9.62e-09 M (implied; unit not printed) and the “Max % Inhibition at 200 nM, HEK-BlueIL33 NFκB Reporter Assay” value was 85%. Moreover, in assay [5], the “IC50, HEK-BlueIL1β NFκB Reporter Assay” value was 2.29e-09 M (implied; unit not printed) and the “Max % Inhibition at 200 nM, HEK-BlueIL1β NFκB Reporter Assay” value worked out at 99%.
